Results taken from US20230002480A1.

How the values were obtained:
Experiment in all cases: cell-based or functional assay
[1] = target: HIV-1 Env of pseudovirus 0260.v5.c36 (HIV-1)
[2] = target: HIV-1 Env of pseudovirus 0815.v3.c3 (HIV-1)
[3] = target: HIV-1 Env of pseudovirus 191084 B7-19 (HIV-1)
[4] = target: HIV-1 Env of pseudovirus 231965.c01 (HIV-1)
[5] = target: HIV-1 Env of pseudovirus 3016.v5.c45 (HIV-1)
[6] = target: HIV-1 Env of pseudovirus 3365.v2.c2 (HIV-1)
[7] = target: HIV-1 Env of pseudovirus 3817.v2.c59 (HIV-1)
[8] = target: HIV-1 Env of pseudovirus 6480.v4.c25 (HIV-1)
[9] = target: HIV-1 Env of pseudovirus 6811.v7.c18 (HIV-1)
[10] = target: HIV-1 Env of pseudovirus 6952.v1.c20 (HIV-1)
[11] = target: HIV-1 Env of pseudovirus 89-F1_2_25 (HIV-1)
[12] = target: HIV-1 Env of pseudovirus BJOX010000.06.2 (HIV-1)
[13] = target: HIV-1 Env of pseudovirus BJOX015000.11.5 (HIV-1)
[14] = target: HIV-1 Env of pseudovirus BJOX025000.01.1 (HIV-1)
[15] = target: HIV-1 Env of pseudovirus P0402_c2_11 (HIV-1)
[16] = target: HIV-1 Env of pseudovirus R3265.c06 (HIV-1)
[17] = target: HIV-1 Env of pseudovirus T250-4 (HIV-1)
[18] = target: HIV-1 Env of pseudovirus T278-50 (HIV-1)
[19] = target: HIV-1 Env of pseudovirus X1193_c1 (HIV-1)
[20] = target: HIV-1 Env of pseudovirus X1254_c3 (HIV-1)

Substance: N49P7.2 (antibody)
- IC50 [1]: 0.644 µg/mL
- IC80 [1]: 1.8 µg/mL
- MPI [1]: 100
- IC50 [2]: 0.023 µg/mL
- IC80 [2]: 0.103 µg/mL
- MPI [2]: 100
- IC50 [3]: 0.102 µg/mL
- IC80 [3]: 0.29 µg/mL
- MPI [3]: 100
- IC50 [4]: 0.316 µg/mL
- IC80 [4]: 1.06 µg/mL
- MPI [4]: 100
- IC50 [5]: 2.77 µg/mL
- IC80 [5]: 23.9 µg/mL
- MPI [5]: 90
- IC50 [6]: 0.066 µg/mL
- IC80 [6]: 0.267 µg/mL
- MPI [6]: 100
- IC50 [7]: 9.83 µg/mL
- IC80 [7]: > 50 µg/mL
- MPI [7]: 68
- IC50 [8]: 0.098 µg/mL
- IC80 [8]: 0.371 µg/mL
- MPI [8]: 100
- IC50 [9]: 0.541 µg/mL
- IC80 [9]: 2.55 µg/mL
- MPI [9]: 100
- IC50 [10]: > 50 µg/mL
- IC80 [10]: > 50 µg/mL
- MPI [10]: 0
- IC50 [11]: > 50 µg/mL
- IC80 [11]: > 50 µg/mL
- MPI [11]: 18
- IC50 [12]: 0.267 µg/mL
- IC80 [12]: 1.11 µg/mL
- MPI [12]: 100
- IC50 [13]: 0.289 µg/mL
- IC80 [13]: 1.26 µg/mL
- MPI [13]: 100
- IC50 [14]: 0.102 µg/mL
- IC80 [14]: 0.831 µg/mL
- MPI [14]: 100
- IC50 [15]: 0.106 µg/mL
- IC80 [15]: 0.4 µg/mL
- MPI [15]: 100
- IC50 [16]: 0.153 µg/mL
- IC80 [16]: 0.985 µg/mL
- MPI [16]: 100
- IC50 [17]: > 50 µg/mL
- IC80 [17]: > 50 µg/mL
- MPI [17]: 15
- IC50 [18]: > 50 µg/mL
- IC80 [18]: > 50 µg/mL
- MPI [18]: 33
- IC50 [19]: 0.014 µg/mL
- IC80 [19]: 0.101 µg/mL
- MPI [19]: 100
- IC50 [20]: 27.5 µg/mL
- IC80 [20]: > 50 µg/mL
- MPI [20]: 53

Substance: N49P11 (antibody)
- IC50 [1]: 0.438 µg/mL
- IC80 [1]: 1.47 µg/mL
- MPI [1]: 100
- IC50 [2]: 0.106 µg/mL
- IC80 [2]: 0.372 µg/mL
- MPI [2]: 100
- IC50 [3]: 0.065 µg/mL
- IC80 [3]: 0.276 µg/mL
- MPI [3]: 100
- IC50 [4]: 9.78 µg/mL
- IC80 [4]: 24.2 µg/mL
- MPI [4]: 100
- IC50 [5]: 8.75 µg/mL
- IC80 [5]: 21.4 µg/mL
- MPI [5]: 100
- IC50 [6]: 0.064 µg/mL
- IC80 [6]: 0.452 µg/mL
- MPI [6]: 100
- IC50 [7]: 4.72 µg/mL
- IC80 [7]: 15.9 µg/mL
- MPI [7]: 100
- IC50 [8]: 0.227 µg/mL
- IC80 [8]: 1.03 µg/mL
- MPI [8]: 100
- IC50 [9]: 3.68 µg/mL
- IC80 [9]: 14.6 µg/mL
- MPI [9]: 100
- IC50 [10]: 6.57 µg/mL
- IC80 [10]: 22.7 µg/mL
- MPI [10]: 100
- IC50 [11]: 4.24 µg/mL
- IC80 [11]: 16.6 µg/mL
- MPI [11]: 100
- IC50 [12]: 6.81 µg/mL
- IC80 [12]: 21.8 µg/mL
- MPI [12]: 100
- IC50 [13]: 0.288 µg/mL
- IC80 [13]: 1.28 µg/mL
- MPI [13]: 100
- IC50 [14]: 0.361 µg/mL
- IC80 [14]: 2.58 µg/mL
- MPI [14]: 100
- IC50 [15]: 0.091 µg/mL
- IC80 [15]: 0.698 µg/mL
- MPI [15]: 100
- IC50 [16]: 0.161 µg/mL
- IC80 [16]: 0.971 µg/mL
- MPI [16]: 100
- IC50 [17]: 6.28 µg/mL
- IC80 [17]: 25.6 µg/mL
- MPI [17]: 100
- IC50 [18]: 7.63 µg/mL
- IC80 [18]: 25.1 µg/mL
- MPI [18]: 100
- IC50 [19]: 0.179 µg/mL
- IC80 [19]: 1.09 µg/mL
- MPI [19]: 100
- IC50 [20]: 5.99 µg/mL
- IC80 [20]: 20.7 µg/mL
- MPI [20]: 100

Substance: N49P18.1 (antibody)
- IC50 [1]: 16.2 µg/mL
- IC80 [1]: 47.8 µg/mL
- MPI [1]: 81
- IC50 [2]: 0.741 µg/mL
- IC80 [2]: 8.45 µg/mL
- MPI [2]: 99
- IC50 [3]: 5.59 µg/mL
- IC80 [3]: 16.9 µg/mL
- MPI [3]: 98
- IC50 [4]: > 50 µg/mL
- IC80 [4]: > 50 µg/mL
- MPI [4]: 31
- IC50 [5]: > 50 µg/mL
- IC80 [5]: > 50 µg/mL
- MPI [5]: 49
- IC50 [6]: 4.72 µg/mL
- IC80 [6]: 14.3 µg/mL
- MPI [6]: 99
- IC50 [7]: > 50 µg/mL
- IC80 [7]: > 50 µg/mL
- MPI [7]: 34
- IC50 [8]: 2.97 µg/mL
- IC80 [8]: 17.3 µg/mL
- MPI [8]: 99
- IC50 [9]: 7.43 µg/mL
- IC80 [9]: 31.9 µg/mL
- MPI [9]: 94
- IC50 [10]: > 50 µg/mL
- IC80 [10]: > 50 µg/mL
- MPI [10]: 30
- IC50 [11]: > 50 µg/mL
- IC80 [11]: > 50 µg/mL
- MPI [11]: 9
- IC50 [12]: > 50 µg/mL
- IC80 [12]: > 50 µg/mL
- MPI [12]: 39
- IC50 [13]: 27.3 µg/mL
- IC80 [13]: > 50 µg/mL
- MPI [13]: 67
- IC50 [14]: 7.67 µg/mL
- IC80 [14]: 39.1 µg/mL
- MPI [14]: 85
- IC50 [15]: 5.47 µg/mL
- IC80 [15]: 20.8 µg/mL
- MPI [15]: 98
- IC50 [16]: 27.9 µg/mL
- IC80 [16]: > 50 µg/mL
- MPI [16]: 66
- IC50 [17]: 4.86 µg/mL
- IC80 [17]: 15.1 µg/mL
- MPI [17]: 94
- IC50 [18]: > 50 µg/mL
- IC80 [18]: > 50 µg/mL
- MPI [18]: 36
- IC50 [19]: 3.12 µg/mL
- IC80 [19]: 23.9 µg/mL
- MPI [19]: 94
- IC50 [20]: 24.8 µg/mL
- IC80 [20]: > 50 µg/mL
- MPI [20]: 61
